For the assay, the target named is T1, Human ROBO2 KSR mutant overexpressed on HEK293 cells (human, UniProt Q9HCK4 22-1378).
T1 construct: R100K and K102R already in the entry
T1 sequence: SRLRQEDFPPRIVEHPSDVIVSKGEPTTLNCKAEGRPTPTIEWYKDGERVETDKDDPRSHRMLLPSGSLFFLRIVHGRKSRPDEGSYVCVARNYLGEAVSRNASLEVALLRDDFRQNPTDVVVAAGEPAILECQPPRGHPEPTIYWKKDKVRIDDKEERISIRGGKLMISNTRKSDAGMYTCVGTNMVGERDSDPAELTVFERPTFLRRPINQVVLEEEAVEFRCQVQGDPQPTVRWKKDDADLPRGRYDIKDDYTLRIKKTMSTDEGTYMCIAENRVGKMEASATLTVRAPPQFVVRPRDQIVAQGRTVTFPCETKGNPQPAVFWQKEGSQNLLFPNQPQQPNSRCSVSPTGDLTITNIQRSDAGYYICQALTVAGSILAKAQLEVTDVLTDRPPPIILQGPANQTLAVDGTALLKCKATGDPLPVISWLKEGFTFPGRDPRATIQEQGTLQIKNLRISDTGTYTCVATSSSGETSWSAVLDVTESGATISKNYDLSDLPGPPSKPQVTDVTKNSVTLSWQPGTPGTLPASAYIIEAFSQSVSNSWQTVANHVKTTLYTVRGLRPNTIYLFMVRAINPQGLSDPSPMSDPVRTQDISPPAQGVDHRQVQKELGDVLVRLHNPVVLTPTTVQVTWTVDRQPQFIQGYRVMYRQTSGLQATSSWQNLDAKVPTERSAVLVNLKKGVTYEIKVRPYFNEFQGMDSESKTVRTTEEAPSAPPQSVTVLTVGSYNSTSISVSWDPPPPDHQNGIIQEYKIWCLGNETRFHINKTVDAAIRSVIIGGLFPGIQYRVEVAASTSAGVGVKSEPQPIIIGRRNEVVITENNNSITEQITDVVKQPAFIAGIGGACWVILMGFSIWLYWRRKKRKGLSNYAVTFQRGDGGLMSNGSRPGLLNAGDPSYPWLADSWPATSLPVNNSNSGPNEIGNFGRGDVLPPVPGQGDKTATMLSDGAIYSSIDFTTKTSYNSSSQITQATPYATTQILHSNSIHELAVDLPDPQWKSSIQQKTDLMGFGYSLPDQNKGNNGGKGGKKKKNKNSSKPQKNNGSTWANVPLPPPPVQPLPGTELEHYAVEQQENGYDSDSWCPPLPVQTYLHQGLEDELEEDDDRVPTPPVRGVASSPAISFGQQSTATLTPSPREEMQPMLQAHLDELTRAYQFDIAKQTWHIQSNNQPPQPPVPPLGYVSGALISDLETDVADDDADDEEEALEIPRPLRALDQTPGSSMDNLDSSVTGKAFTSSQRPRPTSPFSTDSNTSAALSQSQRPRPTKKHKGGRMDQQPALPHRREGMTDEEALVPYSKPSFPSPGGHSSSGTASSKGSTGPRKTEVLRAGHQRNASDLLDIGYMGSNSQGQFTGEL
The assay can be described thus: flow cytometry on HEK293 cells overexpressing the ROBO2-KSR mutant. As for the experimental part:
Binding of the antibodies was detected using a secondary fluorochrome conjugated anti-human IgG F(ab′)₂ antibody and samples were analyzed on a Fortessa cytometer (BD Biosciences). The fold ROBO2 selectivity was calculated as the geometric mean fluorescence intensity (Geo MFI) with ROBO2 cells/Geo MFI with ROBO1 cells. A fold change higher than 3 was considered to be ROBO2 specific (Table 2, Fold Selectivity). Some affinity matured clones had increased ROBO1 reactivity, for example Abcs 55, CTI-R2-10 and CTIR2-13.
Based upon several criteria, Abcs25 and Abcs35 were selected for further characterization. Using flow cytometry, improvement in the binding EC₅₀ to human ROBO2 relative to the parental 93H2 was evaluated. […] Using HEK293 cells overexpressing either cynomolgus monkey ROBO2 or rat ROBO2, the relative dose-dependent binding of 93H2, Abcs25 and Abcs35 was evaluated as described above. […] Association of ROBO2 Ig1-Ig2-His (ROBO2) was measured over 5 minutes and dissociation was followed for a period of 10 minutes.
RSK specificity for Abcs35, along with 93H2 and Abcs25, also was confirmed in a cell-based binding assay using flow cytometry. […] As described above in Example 3, dose-dependent binding was evaluated.

B1: Abcs35 (antibody, human IgG1, kappa)
heavy: EVQLVQSGAEVKKPGASVKVSCKASGYTFTGYYMHWVRQAPGQGLEWMGWINPKNGDTEFPQKFQGRVTMTRDTSITTAYMDLSRLRSDDTAVYYCARESGDDAFDIWGQGTMVTVSSASTKGPSVFPLAPSSKSTSGGTAALGCLVKDYFPEPVTVSWNSGALTSGVHTFPAVLQSSGLYSLSSVVTVPSSSLGTQTYICNVNHKPSNTKVDKKVEPKSCDKTHTCPPCPAPEAAGAPSVFLFPPKPKDTLMISRTPEVTCVVVDVSHEDPEVKFNWYVDGVEVHNAKTKPREEQYNSTYRVVSVLTVLHQDWLNGKEYKCKVSNKALPAPIEKTISKAKGQPREPQVYTLPPSREEMTKNQVSLTCLVKGFYPSDIAVEWESNGQPENNYKTTPPVLDSDGSFFLYSKLTVDKSRWQQGNVFSCSVMHEALHNHYTQKSLSLSPGK
light: DIVMTQSPSSLSASVGDRVTITCRASQSISSYLNWYQQKPGKAPKLLIYAASSLQSGVPSRFSGSGSGTDFTLTISSLQPEDFATYYCQQSVGLFFGGGTKVEIKRTVAAPSVFIFPPSDEQLKSGTASVVCLLNNFYPREAKVQWKVDNALQSGNSQESVTEQDSKDSTYSLSSTLTLSKADYEKHKVYACEVTHQGLSSPVTKSFNRGEC
notes: fully human IgG1; VH of Ab96 with VL of Ab123
For B1, the binding result was “no binding”.
